This note sets out measurements from the supplement of paper PMC10567573.

B1: NEK8 (parent)
chain: VTIKHVACGDFFTACLTDRGIIMT
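Also: lentivirally expressed fusions sorted by FACS into six bins by GFP to DsRed ratio, PSI derived from sequencing read proportions per bin multiplied by bin number.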

Variants of B1 are the subject of the series. The series can be described thus: protein stability index of a GFP-peptide fusion (GPS, HEK-293T) (PSI 1-6); higher = more stable. The following applies: c terminus: a fixed tail appended.
Regarding VTIFHVACGDFFTACLTDRGIIMT, the protein stability index stood at 2.88.
The result for VTIIHVACGDFFTACLTDRGIIMT reads 2.27; that for VTIKHVAIGDFFTACLTDRGIIMT, 2.51.
On to VTIKHVAFGDFFTACLTDRGIIMT, for which the protein stability index turned out to be 2.28.
As for VTIKHVAEGDFFTACLTDRGIIMT, the protein stability index was found to be 3.57.
VTIKHVAAGDFFTACLTDRGIIMT: the protein stability index amounted to 3.3.
Take VTIKHVADGDFFTACLTDRGIIMT: the protein stability index stood at 3.33.
Then VTIKHVALGDFFTACLTDRGIIMT, with 3.14; and VTVKHVACGDFFTACLTDRGIIMT, with 2.27.
In the case of VTLKHVACGDFFTACLTDRGIIMT, the protein stability index is 2.32.
On to VTSKHVACGDFFTACLTDRGIIMT, for which the protein stability index was found to be 2.69.
Take VTPKHVACGDFFTACLTDRGIIMT: the protein stability index worked out at 2.31.
With VTQKHVACGDFFTACLTDRGIIMT, the protein stability index worked out at 2.49.
As to VTNKHVACGDFFTACLTDRGIIMT, the protein stability index was found to be 2.55.
Consider VTDKHVACGDFFTACLTDRGIIMT, for which the protein stability index stood at 3.11.
Consider VTYKHVACGDFFTACLTDRGIIMT, for which the protein stability index was determined as 2.57.
The result for VTKKHVACGDFFTACLTDRGIIMT reads 1.92; that for VTGKHVACGDFFTACLTDRGIIMT, 2.58.
For VTAKHVACGDFFTACLTDRGIIMT, the protein stability index was found to be 1.28.
For VTFKHVACGDFFTACLTDRGIIMT, the protein stability index came to 3.2.
In the case of VTHKHVACGDFFTACLTDRGIIMT, the protein stability index is 2.67.
As for VTEKHVACGDFFTACLTDRGIIMT, the protein stability index was determined as 2.6.
On to VTRKHVACGDFFTACLTDRGIIMT, for which the protein stability index was found to be 2.22.
Then VTTKHVACGDFFTACLTDRGIIMT, with 3.18.
VGIKHVACGDFFTACLTDRGIIMT: the protein stability index stood at 3.03.
VDIKHVACGDFFTACLTDRGIIMT: the protein stability index was determined as 2.1.
In the case of VEIKHVACGDFFTACLTDRGIIMT, the protein stability index turned out to be 2.31.
Regarding VKIKHVACGDFFTACLTDRGIIMT, the protein stability index is 2.06.
Regarding VFIKHVACGDFFTACLTDRGIIMT, the protein stability index came out at 3.64.
With VRIKHVACGDFFTACLTDRGIIMT, the protein stability index worked out at 2.24.
On to VSIKHVACGDFFTACLTDRGIIMT, for which the protein stability index was determined as 2.88.
Regarding VCIKHVACGDFFTACLTDRGIIMT, the protein stability index came to 2.
With VMIKHVACGDFFTACLTDRGIIMT, the protein stability index worked out at 3.25.
As for VYIKHVACGDFFTACLTDRGIIMT, the protein stability index is 3.11.
In the case of VPIKHVACGDFFTACLTDRGIIMT, the protein stability index was determined as 3.12.
Consider VWIKHVACGDFFTACLTDRGIIMT, for which the protein stability index is 2.38.
On to VIIKHVACGDFFTACLTDRGIIMT, for which the protein stability index was determined as 2.48.
Then VTIKKVACGDFFTACLTDRGIIMT, with 1.19; and VTIKDVACGDFFTACLTDRGIIMT, with 3.02; and VTIKWVACGDFFTACLTDRGIIMT, with 2.46.
As to VTIKSVACGDFFTACLTDRGIIMT, the protein stability index was 3.48.
In the case of VTIKIVACGDFFTACLTDRGIIMT, the protein stability index came out at 4.16.
As to VTIKCVACGDFFTACLTDRGIIMT, the protein stability index stood at 2.12.
As to VTIKMVACGDFFTACLTDRGIIMT, the protein stability index is 5.14.
With VTIKFVACGDFFTACLTDRGIIMT, the protein stability index is 2.88.
As to VTIKTVACGDFFTACLTDRGIIMT, the protein stability index stood at 3.55.
As for VTIKRVACGDFFTACLTDRGIIMT, the protein stability index was determined as 3.65.
Take VTIKLVACGDFFTACLTDRGIIMT: the protein stability index amounted to 1.99.
VTIKPVACGDFFTACLTDRGIIMT: the protein stability index stood at 3.52.
As to VTIKHSACGDFFTACLTDRGIIMT, the protein stability index was 2.55.
As to VTIKHIACGDFFTACLTDRGIIMT, the protein stability index is 3.76.
As for VTIKHRACGDFFTACLTDRGIIMT, the protein stability index amounted to 3.07.
As for VTIKHPACGDFFTACLTDRGIIMT, the protein stability index turned out to be 4.25.
With VTIKHFACGDFFTACLTDRGIIMT, the protein stability index stood at 2.71.
Consider VTIKHGACGDFFTACLTDRGIIMT, for which the protein stability index amounted to 2.57.
Then VTIKHAACGDFFTACLTDRGIIMT, with 2.86; and VTIKHWACGDFFTACLTDRGIIMT, with 4.09; and VTIKHHACGDFFTACLTDRGIIMT, with 2.85.
Regarding VTIKHYACGDFFTACLTDRGIIMT, the protein stability index was found to be 1.72.
For VTIKHKACGDFFTACLTDRGIIMT, the protein stability index came out at 2.63.
Turning to VTIKHNACGDFFTACLTDRGIIMT, the protein stability index came to 3.92.
Consider VTIKHLACGDFFTACLTDRGIIMT, for which the protein stability index is 2.85.
Then VTIKHTACGDFFTACLTDRGIIMT, with 2.61; and VTIKHDACGDFFTACLTDRGIIMT, with 1.35.
For VTIKHEACGDFFTACLTDRGIIMT, the protein stability index was found to be 3.14.
Then STIKHVACGDFFTACLTDRGIIMT, with 3.58.
RTIKHVACGDFFTACLTDRGIIMT: the protein stability index is 2.44.
Take CTIKHVACGDFFTACLTDRGIIMT: the protein stability index was 2.23.
For HTIKHVACGDFFTACLTDRGIIMT, the protein stability index was found to be 2.87.
In the case of TTIKHVACGDFFTACLTDRGIIMT, the protein stability index was 1.54.
Then NTIKHVACGDFFTACLTDRGIIMT, with 2.51; and YTIKHVACGDFFTACLTDRGIIMT, with 3.81; and GTIKHVACGDFFTACLTDRGIIMT, with 3.39.
With ATIKHVACGDFFTACLTDRGIIMT, the protein stability index came to 2.57.
As to ETIKHVACGDFFTACLTDRGIIMT, the protein stability index amounted to 1.45.
As for ITIKHVACGDFFTACLTDRGIIMT, the protein stability index came out at 2.71.
With MTIKHVACGDFFTACLTDRGIIMT, the protein stability index amounted to 3.97.
WTIKHVACGDFFTACLTDRGIIMT: the protein stability index stood at 4.31.
The result for PTIKHVACGDFFTACLTDRGIIMT reads 1.33; that for QTIKHVACGDFFTACLTDRGIIMT, 1.59; that for FTIKHVACGDFFTACLTDRGIIMT, 1.99.
Consider KTIKHVACGDFFTACLTDRGIIMT, for which the protein stability index turned out to be 1.91.
Take VTIKHVTCGDFFTACLTDRGIIMT: the protein stability index turned out to be 2.88.
For the variant VTIKHVICGDFFTACLTDRGIIMT, the protein stability index stood at 2.61.
Then VTIKHVCCGDFFTACLTDRGIIMT, with 1.98.
Regarding VTIKHVLCGDFFTACLTDRGIIMT, the protein stability index was determined as 2.33.
VTIKHVQCGDFFTACLTDRGIIMT: the protein stability index was 3.77.
In the case of VTIKHVKCGDFFTACLTDRGIIMT, the protein stability index amounted to 3.25.
VTIKHVSCGDFFTACLTDRGIIMT: the protein stability index was determined as 1.57.
For the variant VTIKHVPCGDFFTACLTDRGIIMT, the protein stability index came out at 1.72.
In the case of VTIKHVECGDFFTACLTDRGIIMT, the protein stability index turned out to be 2.69.
On to VTIKHVMCGDFFTACLTDRGIIMT, for which the protein stability index was 2.95.
For the variant VTIKHVYCGDFFTACLTDRGIIMT, the protein stability index turned out to be 3.2.
For the variant VTIKHVDCGDFFTACLTDRGIIMT, the protein stability index stood at 2.43.
